{"source": "paper PMC5586147", "key": {"[1]": {"biological_target": "human pro-TGF-β1 (C4S, R249A furin-site mutant, N107Q, N147Q), purified (human)", "assay": "negative-stain electron microscopy"}, "[2]": {"biological_target": "pro-TGF-β1 prodomain expressed in absence of the growth factor (latency-associated peptide, LAP)", "assay": "SPR"}}, "note": "Where “and” joins values, the source holds several entries; their conditions need not be identical. Equal values may be shown once."}
{"substance": "soluble integrin αVβ6 headpiece (from UniProt P06756 31-625; P18564 22-491) (complex)", "values": [{"measurement": "stoichiometry N (αVβ6 headpieces per pro-TGF-β1 dimer)", "setting": "[1]", "value": "2 and 1"}, {"measurement": "Kd", "setting": "[2]", "value": 7.6, "unit": "nM"}]}
